The results in this text go back to PMC4627094.

In data set [1] the target is T1, APOBEC3G (A3G) (human, UniProt Q9HC16 1-384). The data set can be described thus: fluorescence anisotropy; 10 mM MgCl2; 40 mM Tris pH 7.2, 50 mM NaCl, 10 mM MgCl2, 1 mM DTT, 0.1% Triton X-100, 2% glycerol, 37 C 20 min; FA with 2 nM labeled NA; UV cross-linking in 1X PBS, 37 C 20.
Data set [2] addresses T1, APOBEC3G (A3G). The data set can be described thus: competition (fluorescence anisotropy); vs labeled 25 nt Sub RNA (N2); 40 mM Tris pH 7.2, 50 mM NaCl, 10 mM MgCl2, 1 mM DTT, 0.1% Triton X-100, 2% glycerol, 37 C 20 min; FA with 2 nM labeled NA; UV cross-linking in 1X PBS, 37 C 20.
Data set [3] addresses T1, APOBEC3G (A3G). The data set can be described thus: competition (fluorescence anisotropy); vs labeled 25 nt Sub ssDNA (N1); 40 mM Tris pH 7.2, 50 mM NaCl, 10 mM MgCl2, 1 mM DTT, 0.1% Triton X-100, 2% glycerol, 37 C 20 min; FA with 2 nM labeled NA; UV cross-linking in 1X PBS, 37 C 20.
The target in data set [4] is T1, APOBEC3G (A3G). The data set can be described thus: EMSA; 37 C, 2.0 uM RNA; 40 mM Tris pH 7.2, 50 mM NaCl, 10 mM MgCl2, 1 mM DTT, 0.1% Triton X-100, 2% glycerol, 37 C 20 min; FA with 2 nM labeled NA; UV cross-linking in 1X PBS, 37 C 20.

T1 sequence (Q9HC16 whole entry): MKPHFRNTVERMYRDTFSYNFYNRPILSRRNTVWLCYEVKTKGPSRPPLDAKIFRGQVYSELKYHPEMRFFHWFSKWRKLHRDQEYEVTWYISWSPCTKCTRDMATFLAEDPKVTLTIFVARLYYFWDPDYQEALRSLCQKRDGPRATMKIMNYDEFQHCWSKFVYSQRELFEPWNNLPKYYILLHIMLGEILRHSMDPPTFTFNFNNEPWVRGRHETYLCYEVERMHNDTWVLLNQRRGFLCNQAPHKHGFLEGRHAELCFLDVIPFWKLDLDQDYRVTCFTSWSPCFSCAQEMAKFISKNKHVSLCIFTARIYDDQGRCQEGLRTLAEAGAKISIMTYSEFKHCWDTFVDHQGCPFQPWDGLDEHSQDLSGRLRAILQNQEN

Regarding TTATTUUUAAGGATT (ssDNA, dU at positions 6-8) [15 nt Sub ssDNA, Alexa 647], in data set [1], the Kd stood at 10 nM. With TTATTUUUAAGGATTTATTTATTTA (ssDNA, dU at positions 6-8) [25 nt Sub ssDNA (unlabeled or 32P)], the IC50 in data set [2] is 22 nM; in data set [3] it was 15 nM.

UUAUUUUUAAGGAUUUAUUUAUUUA (ssRNA) [25 nt Sub RNA, Alexa 647]: in data set [1], binding was characterised by a dissociation constant (Kd) of 2.9 nM. Turning to CAUAUAUGAUACAAUUUGAUCAGUA (ssRNA) [25 nt ApoB RNA], the binding result in data set [4] was “binds”. As for UUAUUUUUAAGGAUUUAUUUAUUUA (ssRNA) [25 nt Sub RNA, unlabeled], the concentration for half-maximal inhibition (IC50) in data set [2] is 115 nM; in data set [3], 57 nM.

Molecule UUAUUUUUAAGGAUU (ssRNA) [15 nt Sub RNA, Alexa 647] came in with a Kd in data set [1] of 4.4 nM. TTATTUUUAAGGATTTATTTATTTA (ssDNA, dU at positions 6-8) [25 nt Sub ssDNA, Alexa 647] displayed a dissociation constant Kd in data set [1] of 3.8 nM.
